Measured values: patent US20240344110A1, “COMPOSITION FOR CELL LYSIS AND NUCLEIC ACID EXTRACTION, NUCLEIC ACID EXTRACTION METHOD USING SAME, AND MOLECULAR DIAGNOSTIC METHOD USING SAME” (INVITROS CO., LTD., priority 2021, published 2024)

Columns and labels:
RNase [1] = assay: Ct value depending on temperature of first heating step (Experimental Example 3); type: biochemical; details: RNase inhibitor 30 U/rxn, incubation 5 minutes
RNase [2] = assay: Ct value depending on concentration of RNase inhibitor in first heating step (Experimental Example 2); type: biochemical; details: first heating 37° C. 5 minutes

- Ct value at first heating temperature of 25° C. to 37° C. (RNase [1]): constant
- Ct value at first heating temperature of 45° C. or higher (RNase [1]): increased
- Ct value as the concentration of the RNase inhibitor increased (RNase [2]; 7.5 U/rxn to 45 U/rxn): gradually decreased
B1: RNase inhibitor: RNase inhibitor (Nanohelix RNase Inhibitor) derived from murine lung (protein, UniProt Q91VI7 1-456, looked up)
Ribonuclease inhibitor: MSLDIQCEQLSDARWTELLPLIQQYEVVRLDDCGLTEVRCKDISSAVQANPALTELSLRTNELGDGGVGLVLQGLQNPTCKIQKLSLQNCGLTEAGCGILPGMLRSLSTLRELHLNDNPMGDAGLKLLCEGLQDPQCRLEKLQLEYCNLTATSCEPLASVLRVKADFKELVLSNNDLHEPGVRILCQGLKDSACQLESLKLENCGITAANCKDLCDVVASKASLQELDLSSNKLGNAGIAALCPGLLLPSCKLRTLWLWECDITAEGCKDLCRVLRAKQSLKELSLASNELKDEGARLLCESLLEPGCQLESLWIKTCSLTAASCPYFCSVLTKSRSLLELQMSSNPLGDEGVQELCKALSQPDTVLRELWLGDCDVTNSGCSSLANVLLANRSLRELDLSNNCMGGPGVLQLLESLKQPSCTLQQLVLYDIYWTNEVEEQLRALEEERPSLRIIS
- Ct value at 52.5 U/rxn (RNase [2]; 52.5 U/rxn): lower than that at a concentration of 7.5 U/rxn
